In US12304939B2, “EGFR and C-met fibronectin type III domain binding molecules” (Janssen Biotech, Inc., priority 2012, dated 2025):
Positions count from the first letter of the chain named. Names may count otherwise. Where two headings read alike, the source gives them in different places.

B1: A3 M72S: serine mutant of A3 c-Met domain in ECB15 context, SEQ ID NO: 220 (protein)
chain: LPAPKNLVVSRVTEDSARLSWTAPDAAFDSFWIRYFEFLGSGEAIVLTVPGSERSYDLTGLKPGTEYVVNISGVKGGKISPPLSAIFTT
modifications: c-Met binding FN3 domain
B2: A3 R34S: serine mutant of A3 c-Met domain in ECB15 context, SEQ ID NO: 221 (protein)
chain: B1 chain with R34S, S72M
modifications: c-Met binding FN3 domain
B3: A3 I79S: serine mutant of A3 c-Met domain in ECB15 context, SEQ ID NO: 223 (protein)
chain: B1 chain with S72M, I79S
modifications: c-Met binding FN3 domain
B4: A3 F38S: serine mutant of A3 c-Met domain in ECB15 context, SEQ ID NO: 222 (protein)
chain: B1 chain with F38S, S72M
modifications: c-Met binding FN3 domain
B5: P114AR7P92-G8: c-Met-binding FN3 domain, SEQ ID NO: 36 (protein)
chain: B1 chain with W32V, N70Q, S72L, K78Y, P81I
modifications: c-Met binding FN3 domain
B6: P114AR7P92-H5: c-Met-binding FN3 domain, SEQ ID NO: 37 (protein)
chain: B1 chain with F36L, G40L, S41G, N70Q, S72M, K78T, I79V
modifications: c-Met binding FN3 domain
B7: P114AR7P93-G8: c-Met-binding FN3 domain, SEQ ID NO: 39 (protein)
chain: B1 chain with G60D, V68G, N70T, S72N, K78R, I79V, P81T
modifications: c-Met binding FN3 domain
B8: P114AR7P93-H9: c-Met-binding FN3 domain, SEQ ID NO: 40 (protein)
chain: B1 chain with N70Q, S72I, K78H, P81L
modifications: c-Met binding FN3 domain
B9: P114AR7P94-A3: c-Met-binding FN3 domain, SEQ ID NO: 41 (protein)
chain: B1 chain with S72M
modifications: c-Met binding FN3 domain
B10: P114AR7P94-E5: c-Met-binding FN3 domain, SEQ ID NO: 42 (protein)
chain: B1 chain with V68A, S72M, K78R, I79V, P81V
modifications: c-Met binding FN3 domain
B11: P114AR7P95-D4: c-Met-binding FN3 domain, SEQ ID NO: 45 (protein)
chain: B1 chain with N70Q, S72L, K78Y, P81I
modifications: c-Met binding FN3 domain
B12: P114AR7P95-F10: c-Met-binding FN3 domain, SEQ ID NO: 47 (protein)
chain: B1 chain with L39T, G40T, S41A, S72M, K78S
modifications: c-Met binding FN3 domain
B13: P114AR7P95-G7: c-Met-binding FN3 domain, SEQ ID NO: 48 (protein)
chain: B1 chain with F38L, G40S, S41T, S72M, K78S
modifications: c-Met binding FN3 domain
B14: P114AR7P95-H8: c-Met-binding FN3 domain, SEQ ID NO: 49 (protein)
chain: B1 chain with L39V, G40S, S41K, S72M, K78S
modifications: c-Met binding FN3 domain
B15: P114AR5P74-A5: c-Met-binding FN3 domain, SEQ ID NO: 32 (protein)
chain: B1 chain with F36D, F38V, L39V, G40V, S41G, V68Y, S72L, K78S, P81V
modifications: c-Met binding FN3 domain
B16: P114AR7P92-F6: c-Met-binding FN3 domain, SEQ ID NO: 35 (protein)
chain: B1 chain with S72L, K78G, I79L, P81V
modifications: c-Met binding FN3 domain
B17: ECB94: bispecific SEQ ID NO: 61: P54AR4-83v22, (AP)5, P114AR7P94-A3v22 (protein)
chain: MLPAPKNLVVSEVTEDSARLSWDDPWAFYESFLIQYQESEKVGEAIVLTVPGSERSYDLTGLKPGTEYTVSIYGVHNVYKDTNIRGLPLSAIFTTAPAPAPAPAPLPAPKNLVVSRVTEDSARLSWTAPDAAFDSFWIRYFEFLGSGEAIVLTVPGSERSYDLTGLKPGTEYVVNILGVKGGKISPPLSAIFTT
modifications: bispecific EGFR/cMet binding molecule
B18: ECB95: bispecific SEQ ID NO: 62: P54AR4-83v22, (AP)5, P114AR9P121-A6v2 (protein)
chain: B17 chain with L144V, K183S
modifications: bispecific EGFR/cMet binding molecule
B19: ECB96: bispecific SEQ ID NO: 63: P54AR4-83v22, (AP)5, P114AR9P122-A7v2 (protein)
chain: B17 chain with L144V, G145S, S146K, E148D, K183S
modifications: bispecific EGFR/cMet binding molecule
B20: A3 N70S: serine mutant of A3 c-Met domain in ECB15 context, SEQ ID NO: 216 (protein)
chain: B1 chain with N70S, S72M
modifications: c-Met binding FN3 domain
B21: A3 P81S: serine mutant of A3 c-Met domain in ECB15 context, SEQ ID NO: 217 (protein)
chain: B1 chain with S72M, P81S
modifications: c-Met binding FN3 domain
B22: A3 F36S: serine mutant of A3 c-Met domain in ECB15 context, SEQ ID NO: 218 (protein)
chain: B1 chain with F36S, S72M
modifications: c-Met binding FN3 domain
B23: A3 W32S: serine mutant of A3 c-Met domain in ECB15 context, SEQ ID NO: 219 (protein)
chain: B1 chain with W32S, S72M
modifications: c-Met binding FN3 domain
B24: A3 K78S: serine mutant of A3 c-Met domain in ECB15 context, SEQ ID NO: 212 (protein)
chain: B1 chain with S72M, K78S
modifications: c-Met binding FN3 domain
B25: A3 G40S: serine mutant of A3 c-Met domain in ECB15 context, SEQ ID NO: 213 (protein)
chain: B1 chain with G40S, S72M
modifications: c-Met binding FN3 domain
B26: A3 L39S: serine mutant of A3 c-Met domain in ECB15 context, SEQ ID NO: 214 (protein)
chain: B1 chain with L39S, S72M
modifications: c-Met binding FN3 domain
B27: A3 V68S: serine mutant of A3 c-Met domain in ECB15 context, SEQ ID NO: 215 (protein)
chain: B1 chain with V68S, S72M
modifications: c-Met binding FN3 domain

Legend:
c-Met-Fc fusion protein = molecular target: T1, c-Met-Fc fusion protein (Homo sapiens, UniProt P08581); assay: c-Met-Fc affinity by surface plasmon resonance (Proteon); format: binding; conditions: for binding to c-Met (in words): SPR, serine mutants in ECB15; for ka / kd / Kd: serine mutants of A3 in the context of ECB15; for Kd: read-out: KD
T1 construct: recombinant EGFR and/or c-Met extracellular domain

[1] = Differential scanning calorimetry in PBS (thermal stability); format: physicochemical; conditions: DSC in PBS, c-Met-binding FN3 domains
H292 cells = assay: Inhibition of proliferation of HGF-induced H292 cells; format: cell-based, human; conditions: bispecific molecules
Text: Inhibition of tumor cell proliferation can be measured using standard methods and methods described herein.
The proliferation assay was completed using different combinations EGFR and c-Met binding FN3 domains either as a mixture or linked in a bispecific format. […] This confirmed that the avidity effect observed at the level of the receptors (FIG. 4 and FIG. 5) translates into an improvement in inhibiting cell signaling (Table 12) and cell proliferation (Table 13).
Inhibition of human tumor cell growth was assessed in standard attachment culture as described in Examples 3 or 6, or in low attachment conditions.

T1 sequence (P08581 25-932 limits assumed): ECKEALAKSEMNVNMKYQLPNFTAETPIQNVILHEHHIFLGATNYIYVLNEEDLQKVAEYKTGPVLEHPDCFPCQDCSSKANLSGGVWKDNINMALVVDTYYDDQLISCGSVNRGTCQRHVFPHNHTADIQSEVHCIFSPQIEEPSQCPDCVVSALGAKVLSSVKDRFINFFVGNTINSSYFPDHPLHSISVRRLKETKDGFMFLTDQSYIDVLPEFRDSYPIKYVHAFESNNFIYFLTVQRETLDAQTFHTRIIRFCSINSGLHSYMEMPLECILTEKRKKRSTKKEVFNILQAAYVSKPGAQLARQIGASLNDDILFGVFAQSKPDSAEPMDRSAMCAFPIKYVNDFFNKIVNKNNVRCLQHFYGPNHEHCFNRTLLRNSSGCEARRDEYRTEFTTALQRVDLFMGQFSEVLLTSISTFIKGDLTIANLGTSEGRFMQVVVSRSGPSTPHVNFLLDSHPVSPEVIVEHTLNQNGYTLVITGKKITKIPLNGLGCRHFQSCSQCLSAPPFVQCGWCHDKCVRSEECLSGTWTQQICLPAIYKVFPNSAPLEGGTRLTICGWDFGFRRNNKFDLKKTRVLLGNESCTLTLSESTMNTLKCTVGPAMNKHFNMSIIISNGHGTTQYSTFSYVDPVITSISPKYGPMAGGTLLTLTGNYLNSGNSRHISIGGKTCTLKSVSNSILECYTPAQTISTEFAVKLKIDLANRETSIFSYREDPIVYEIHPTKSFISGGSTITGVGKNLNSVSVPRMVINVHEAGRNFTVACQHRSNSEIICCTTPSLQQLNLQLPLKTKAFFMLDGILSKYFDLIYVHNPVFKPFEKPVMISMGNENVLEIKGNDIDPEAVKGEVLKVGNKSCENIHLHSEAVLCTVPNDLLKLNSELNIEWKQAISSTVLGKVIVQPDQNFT

| Molecule | Fold Change of KD compared to parent (c-Met-Fc fusion protein) | ka (c-Met-Fc fusion protein) | kd (c-Met-Fc fusion protein) | Kd (c-Met-Fc fusion protein) | Thermal Stability (Tm) [1] | further results |
| --- | --- | --- | --- | --- | --- | --- |
| B1 | – | – | – | – | – | binding to c-Met (in words) (c-Met-Fc fusion protein): No binding was measurable |
| B2 | – | – | – | – | – | binding to c-Met (in words) (c-Met-Fc fusion protein): No binding was measurable |
| B3 | – | – | – | – | – | binding to c-Met (in words) (c-Met-Fc fusion protein): No binding was measurable |
| B4 | 1792.5 | 45100 M⁻¹ s⁻¹ | 0.0323 s⁻¹ | 717 nM | – | Fold Change of KD compared to parent (c-Met-Fc fusion protein; listed as F38S): greater than 100 |
| B5 | – | – | – | – | 90.9 C | – |
| B6 | – | – | – | – | 87 C | – |
| B7 | – | – | – | – | 76.8 C | – |
| B8 | – | – | – | – | 88.2 C | – |
| B9 | – | – | – | – | 86.2 C | – |
| B10 | – | – | – | – | 80 C | – |
| B11 | – | – | – | – | 85.3 C | – |
| B12 | – | – | – | – | 85.2 C | – |
| B13 | – | – | – | – | 87.2 C | – |
| B14 | – | – | – | – | 83 C | – |
| B15 | – | – | – | – | 74.1 C | – |
| B16 | – | – | – | – | 76.8 C | – |
| B17 | – | – | – | – | – | IC50 (H292 cells): 29.6 nM |
| B18 | – | – | – | – | – | IC50 (H292 cells): 383 nM |
| B19 | – | – | – | – | – | IC50 (H292 cells): 9480 nM |
| B20 | 14.75 | 425000 M⁻¹ s⁻¹ | 0.00249 s⁻¹ | 5.9 nM | – | – |
| B21 | 4.25 | 321000 M⁻¹ s⁻¹ | 0.000536 s⁻¹ | 1.7 nM | – | – |
| B22 | 68 | 188000 M⁻¹ s⁻¹ | 0.00512 s⁻¹ | 27.2 nM | – | – |
| B23 | 74.5 | 289000 M⁻¹ s⁻¹ | 0.0086 s⁻¹ | 29.8 nM | – | – |
| B24 | 0.75 | 440000 M⁻¹ s⁻¹ | 0.00015 s⁻¹ | 0.3 nM | – | – |
| B25 | 4.25 | 185000 M⁻¹ s⁻¹ | 0.00032 s⁻¹ | 1.7 nM | – | – |
| B26 | 6.75 | 475000 M⁻¹ s⁻¹ | 0.00127 s⁻¹ | 2.7 nM | – | – |
| B27 | 9 | 329000 M⁻¹ s⁻¹ | 0.0012 s⁻¹ | 3.6 nM | – | – |
